Experimental data taken from US20240376151A1, “STAPLED PEPTIDES AND METHODS THEREOF” (FOG PHARMACEUTICALS, INC., priority 2022, published 2024).
Numbered stars: 1 amine (or outer) side, 2 acyl side, 3 side chain; on linkers, the order of the positions; unused ones are H or OH. Bridge positions count the residues as written; N and C are the ends. Ends that are not written are not given here. Phenylene(1,4-NHCOCH2)2 = O=C(C[*:1])Nc1ccc(NC(=O)C[*:2])cc1

Tests used:
[1] = target: T1, MDM2 (Homo sapiens, UniProt Q00987); test: Naive Library Presenter Screening (phage, NGS), MDM2; format: binding; settings: for interaction data, BLANK: Blank = Media only
T1 construct: made in house
T1 sequence (Q00987 25-109): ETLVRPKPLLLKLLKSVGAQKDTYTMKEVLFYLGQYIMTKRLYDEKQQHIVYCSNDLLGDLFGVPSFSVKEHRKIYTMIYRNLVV

[2] = target: T2, CHIP (Homo sapiens, UniProt Q9UNE7); test: Naive Library Presenter Screening (phage, NGS), CHIP; format: binding; settings: for interaction data at Target Concentration 10: CHIP target concentration 10 nM; for interaction data at Target Concentration 30: CHIP target concentration 30 nM; for interaction data at Target Concentration 100: CHIP target concentration 100 nM; for interaction data at Target Concentration 300: CHIP target concentration 300 nM; for interaction data at Target Concentration 1000: CHIP target concentration 1000 nM
T2 construct: N-term truncated CHIP (also known as STUB1, Uniprot ID: Q9UNE7, residues 23-303); made in house; host or cells: E. coli BL21 CodonPlus
T2 sequence (Q9UNE7 23-303): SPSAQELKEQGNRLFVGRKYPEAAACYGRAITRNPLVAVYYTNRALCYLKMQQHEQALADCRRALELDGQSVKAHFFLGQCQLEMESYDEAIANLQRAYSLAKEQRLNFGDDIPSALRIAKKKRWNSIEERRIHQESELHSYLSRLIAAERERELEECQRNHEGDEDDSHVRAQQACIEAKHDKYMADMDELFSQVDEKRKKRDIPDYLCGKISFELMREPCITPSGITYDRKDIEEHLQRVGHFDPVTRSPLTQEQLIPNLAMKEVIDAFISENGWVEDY
Method: To conduct phage library screening, previously described procedures were utilized in accordance with the present disclosure.
Next-generation sequencing was performed as described in accordance with the present disclosure.
Hit ID and Clustering is performed according to a described procedure in accordance with the present disclosure.

[3] = MDM2 clusters (C82, C85), first column
[4] = MDM2 clusters (C82, C85), second column
[5] = MDM2 clusters (C82, C85), target concentration 10 nM
[6] = MDM2 clusters (C82, C85), target concentration 30 nM
[7] = MDM2 clusters (C82, C85), target concentration 100 nM
[8] = MDM2 clusters (C82, C85), target concentration 300 nM
[9] = MDM2 clusters (C82, C85), target concentration 1000 nM, first column
[10] = MDM2 clusters (C82, C85), target concentration 1000 nM, second column
[11] = MDM2 target concentration 10 nM
[12] = MDM2 target concentration 30 nM
[13] = MDM2 target concentration 100 nM
[14] = MDM2 target concentration 300 nM
[15] = MDM2 target concentration 1000 nM, first column
[16] = MDM2 target concentration 1000 nM, second column

| Sequence | interaction data, BLANK [1, 3] | interaction data, BLANK [1, 4] | interaction data at Target Concentration 10 [1, 5] | interaction data at Target Concentration 30 [1, 6] | interaction data at Target Concentration 100 [1, 7] | interaction data at Target Concentration 300 [1, 8] | interaction data at Target Concentration 1000 [1, 9] | interaction data at Target Concentration 1000 [1, 10] | interaction data at Target Concentration 10 [1, 11] | interaction data at Target Concentration 30 [1, 12] | interaction data at Target Concentration 100 [1, 13] | interaction data at Target Concentration 300 [1, 14] | interaction data at Target Concentration 1000 [1, 15] | interaction data at Target Concentration 1000 [1, 16] | interaction data at Target Concentration 10 [2] | interaction data at Target Concentration 30 [2] | interaction data at Target Concentration 100 [2] | interaction data at Target Concentration 300 [2] | interaction data at Target Concentration 1000 ([2]; first column) | interaction data at Target Concentration 1000 ([2]; second column) |
| --- | --- | --- | --- | --- | --- | --- | --- | --- | --- | --- | --- | --- | --- | --- | --- | --- | --- | --- | --- | --- |
| DPAAQECFRAAWRCMQD (linker 7-14 via Phenylene(1,4-NHCOCH2)2 (inferred)) | 0 | 0 | 0 | 0 | 25 | 37 | 34 | 29 |  |  |  |  |  |  |  |  |  |  |  |  |
| DPAAVQCNTAAFQCYWF (linker 7-14 via Phenylene(1,4-NHCOCH2)2 (inferred)) | 0 | 0 | 0 | 0 | 23 | 56 | 53 | 69 |  |  |  |  |  |  |  |  |  |  |  |  |
| DPADIVCQDAAFQCFWW (linker 7-14 via Phenylene(1,4-NHCOCH2)2 (inferred)) | 0 | 0 | 0 | 1 | 12 | 33 | 46 | 18 |  |  |  |  |  |  |  |  |  |  |  |  |
| DPADNRCFQAAWDCAFW (linker 7-14 via Phenylene(1,4-NHCOCH2)2 (inferred)) |  |  |  |  |  |  |  |  | 1 | 0 | 51 | 22 | 20 | 23 |  |  |  |  |  |  |
| DPADRDCFSAAWACVIR (linker 7-14 via Phenylene(1,4-NHCOCH2)2 (inferred)) | 0 | 0 | 0 | 37 | 188 | 209 | 160 | 215 |  |  |  |  |  |  |  |  |  |  |  |  |
| DPADSECFQAASDCQYW (linker 7-14 via Phenylene(1,4-NHCOCH2)2 (inferred)) |  |  |  |  |  |  |  |  | 7 | 11 | 0 | 0 | 5 | 6 |  |  |  |  |  |  |
| DPAENECFTAAWDCMFF (linker 7-14 via Phenylene(1,4-NHCOCH2)2 (inferred)) |  |  |  |  |  |  |  |  | 0 | 0 | 7 | 51 | 70 | 40 |  |  |  |  |  |  |
| DPAERNCFTAAWQCMVW (linker 7-14 via Phenylene(1,4-NHCOCH2)2 (inferred)) | 0 | 0 | 0 | 23 | 158 | 230 | 135 |  |  |  |  |  |  |  |  |  |  |  |  |  |
| DPAETDCSQAAFWCYWQ (linker 7-14 via Phenylene(1,4-NHCOCH2)2 (inferred)) | 0 | 0 | 1 | 15 | 170 | 133 | 176 | 188 |  |  |  |  |  |  |  |  |  |  |  |  |
| DPAFDSCFSAAWDCMYW (linker 7-14 via Phenylene(1,4-NHCOCH2)2 (inferred)) |  |  |  |  |  |  |  |  | 3 | 0 | 27 | 92 | 65 | 84 |  |  |  |  |  |  |
| DPAHNLCFDAAWWCHWQ (linker 7-14 via Phenylene(1,4-NHCOCH2)2 (inferred)) | 0 | 0 | 0 | 0 | 9 | 7 | 8 | 11 |  |  |  |  |  |  |  |  |  |  |  |  |
| DPAHQQCFMAAWRCVVH (linker 7-14 via Phenylene(1,4-NHCOCH2)2 (inferred)) | 0 | 0 | 1 | 48 | 230 | 375 | 356 | 327 |  |  |  |  |  |  |  |  |  |  |  |  |
| DPAHRQCFTAAWRCMMT (linker 7-14 via Phenylene(1,4-NHCOCH2)2 (inferred)) | 0 | 0 | 0 | 42 | 149 | 156 | 202 | 149 |  |  |  |  |  |  |  |  |  |  |  |  |
| DPAHYECTDAAFECYWF (linker 7-14 via Phenylene(1,4-NHCOCH2)2 (inferred)) | 0 | 0 | 0 | 2 | 33 | 74 | 57 | 82 |  |  |  |  |  |  |  |  |  |  |  |  |
| DPAINTCQDAAFWCYWS (linker 7-14 via Phenylene(1,4-NHCOCH2)2 (inferred)) | 0 | 0 | 0 | 131 | 203 | 226 | 185 | 315 |  |  |  |  |  |  |  |  |  |  |  |  |
| DPALFSCDSAAFSCYWY (linker 7-14 via Phenylene(1,4-NHCOCH2)2 (inferred); not fully specified (C-terminus)) | 0 | 0 | 0 | 0 | 25 | 17 | 25 | 57 |  |  |  |  |  |  |  |  |  |  |  |  |
| PCWNAWLYCSN (linker 2-9 via Phenylene(1,4-NHCOCH2)2 (inferred)) |  |  |  |  |  |  |  |  |  |  |  |  |  |  | 0 | 0 | 11 | 105 | 155 | 58 |
| PCWNAWMVCSV (linker 2-9 via Phenylene(1,4-NHCOCH2)2 (inferred)) |  |  |  |  |  |  |  |  |  |  |  |  |  |  | 2 | 44 | 334 | 474 | 690 | 691 |
| PCWSAWLACEL (linker 2-9 via Phenylene(1,4-NHCOCH2)2 (inferred)) |  |  |  |  |  |  |  |  |  |  |  |  |  |  | 0 | 81 | 72 | 130 | 220 | 206 |
| PCYSAWITCES (linker 2-9 via Phenylene(1,4-NHCOCH2)2 (inferred)) |  |  |  |  |  |  |  |  |  |  |  |  |  |  | 0 | 134 | 286 | 457 | 563 | 538 |
| PCYSAWIVCSD (linker 2-9 via Phenylene(1,4-NHCOCH2)2 (inferred)) |  |  |  |  |  |  |  |  |  |  |  |  |  |  | 4 | 81 | 123 | 444 | 549 | 468 |
| PMCSDAWLFCE (linker 3-10 via Phenylene(1,4-NHCOCH2)2 (inferred)) |  |  |  |  |  |  |  |  |  |  |  |  |  |  | 0 | 0 | 0 | 74 | 143 | 57 |
